The text below walks through data of patent publication US20120052092A1 (IMPERIAL INNOVATIONS, published 2012).

This assay has as its target T1, factor H binding protein (wild type, variant 1) (Neisseria meningitidis, UniProt E6MV22 20-274).
T1 sequence: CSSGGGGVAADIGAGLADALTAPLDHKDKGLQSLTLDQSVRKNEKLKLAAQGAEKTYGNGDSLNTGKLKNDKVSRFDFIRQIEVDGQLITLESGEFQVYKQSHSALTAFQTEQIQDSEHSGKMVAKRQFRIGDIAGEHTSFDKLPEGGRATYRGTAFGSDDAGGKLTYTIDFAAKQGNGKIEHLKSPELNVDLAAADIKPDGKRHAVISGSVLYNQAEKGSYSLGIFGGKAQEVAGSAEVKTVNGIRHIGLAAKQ
Description: derived from binding studies (SPR).

B1: fH67 (CCPs 6 and 7 of factor H) (other)
chain: TLKPCDYPDIKHGGLYHENMRRPYFPVAVGKYYSYYCDEHFETPSGSYWDHIHCTQDGWSPAVPCLRKCYFPYLENGYNQNYGRKFVQGKSIDVACHPGYALPKAQTTVTCMENGWSPTPRCI
notes: domain: CCPs 6 and 7; also called CCPs 67; Factor H domains 6 & 7
As to B1, the “ΔG (calculated from KD)” value is -11 kcal/mol.
